Results on five molecules are retold here after patent publication US20230331827A1, “POTASSIUM CHANNEL INHIBITORS” (priority 2017, published 2023).

Positions count from the first letter of the chain named.

The term IC50 denotes the concentration at which inhibition is half-maximal.

The labels stand for the following.
T1: huASIC1a (Homo sapiens, UniProt P78348)
T1 construct: host or cells: HEK293
T1 sequence (P78348 1-528): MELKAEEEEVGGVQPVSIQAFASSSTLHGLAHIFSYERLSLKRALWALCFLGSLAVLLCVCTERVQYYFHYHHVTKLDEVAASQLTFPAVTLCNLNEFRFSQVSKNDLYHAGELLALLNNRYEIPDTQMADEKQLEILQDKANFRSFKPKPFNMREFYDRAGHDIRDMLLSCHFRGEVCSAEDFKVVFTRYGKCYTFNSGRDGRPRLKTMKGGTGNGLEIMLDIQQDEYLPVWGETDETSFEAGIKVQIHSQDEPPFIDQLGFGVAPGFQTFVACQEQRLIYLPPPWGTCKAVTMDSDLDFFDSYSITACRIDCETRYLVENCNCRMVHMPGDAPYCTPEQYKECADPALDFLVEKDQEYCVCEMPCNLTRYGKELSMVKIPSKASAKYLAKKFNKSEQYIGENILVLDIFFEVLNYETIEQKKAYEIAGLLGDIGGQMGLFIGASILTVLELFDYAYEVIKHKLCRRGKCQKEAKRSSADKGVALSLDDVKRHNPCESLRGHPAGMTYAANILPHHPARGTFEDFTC

B1: KB_A12_Odk2 short: truncated OdK2 in VL CDR2 of KB_A12, IgG (antibody, V domains shown)
VH: EVQLVESGGGLVRPGGSLRLSCAASGFTFSSYAMSWVRQAPGKGLEWVSAISGSGGSTYYADSVKGRFTISRDNTKNSLYLQMTSLRADDTAFYYCVKDFGPGYGTGWFDYWGPGTLVTVSS
VL: QSVLTQPPSVSEAPRQRVTITCSGSSSNIGNNAVNWYQQLPGKAPKLLIYAAGRVKCRGSPQCIQPCKDAGMRFGKCMNGKCHCTPKANSGVSDRFSAAKSGTSASLAINGLRSEDEADYYCAAWDDSLNGYVFGTGTKLTVLG
B2: KB_A12_ADWX1 short: truncated ADWX-1 in VL CDR2 of KB_A12, IgG (antibody, V domains shown)
VH: B1 VH
VL: B1 VL with R58K, G59H, P61R, I64L, Q65K, M78T
B3: KB_A12_Vm24: Vm24 in VL CDR2 of KB_A12, IgG (antibody, V domains shown)
VH: B1 VH
VL: QSVLTQPPSVSEAPRQRVTITCSGSSSNIGNNAVNWYQQLPGKAPKLLIYAAGRAAAISCVGSPECPPKCRAQGCKNGKCMNRKCKCYYCANSGVSDRFSAAKSGTSASLAINGLRSEDEADYYCAAWDDSLNGYVFGTGTKLTVLG
B4: KB_A12_HsTx1 (antibody, V domains shown)
VH: B1 VH
VL: QSVLTQPPSVSEAPRQRVTITCSGSSSNIGNNAVNWYQQLPGKAPKLLIYAAGRASCRTPKDCADPCRKETGCPYGKCMNRKCKCNRCANSGVSDRFSAAKSGTSASLAINGLRSEDEADYYCAAWDDSLNGYVFGTGTKLTVLG
B5: KB_A12_Mba-2: Mambalgin-2 in VL CDR2 of KB_A12 (antibody)
VH: B1 VH
VL: QSVLTQPPSVSEAPRQRVTITCSGSSSNIGNNAVNWYQQLPGKAPKLLIYAAGRLKCFQHGKVVTCHRDMKFCYHNTGMPFRNLKLILQGCSSSCSETENNKCCSTDRCNKANSGVSDRFSAAKSGTSASLAINGLRSEDEADYYCAAWDDSLNGYVFGTGTKLTVLGQP

T3 sequence (P22001 whole entry): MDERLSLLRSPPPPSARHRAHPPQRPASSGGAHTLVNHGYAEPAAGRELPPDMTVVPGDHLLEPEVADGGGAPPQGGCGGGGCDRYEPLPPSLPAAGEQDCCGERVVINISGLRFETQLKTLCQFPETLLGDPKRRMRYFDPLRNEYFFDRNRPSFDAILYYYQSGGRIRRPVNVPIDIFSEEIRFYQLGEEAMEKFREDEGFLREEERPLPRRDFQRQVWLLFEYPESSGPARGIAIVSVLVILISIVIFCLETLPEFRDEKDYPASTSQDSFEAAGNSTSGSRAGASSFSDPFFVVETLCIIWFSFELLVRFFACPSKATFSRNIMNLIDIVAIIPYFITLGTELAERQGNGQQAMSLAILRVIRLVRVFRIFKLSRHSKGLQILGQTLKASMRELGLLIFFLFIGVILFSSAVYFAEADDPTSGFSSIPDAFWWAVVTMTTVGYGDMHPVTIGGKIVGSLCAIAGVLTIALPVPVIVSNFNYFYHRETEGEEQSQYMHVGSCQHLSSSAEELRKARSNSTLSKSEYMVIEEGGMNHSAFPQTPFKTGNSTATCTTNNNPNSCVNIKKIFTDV

For the first assay, the target named is T2, human Kv1.1 (huKv1.1) (Homo sapiens, UniProt Q09470).
T2 construct: expressed in transfected cells; host or cells: Freestyle CHO-S
T2 sequence (Q09470 whole entry): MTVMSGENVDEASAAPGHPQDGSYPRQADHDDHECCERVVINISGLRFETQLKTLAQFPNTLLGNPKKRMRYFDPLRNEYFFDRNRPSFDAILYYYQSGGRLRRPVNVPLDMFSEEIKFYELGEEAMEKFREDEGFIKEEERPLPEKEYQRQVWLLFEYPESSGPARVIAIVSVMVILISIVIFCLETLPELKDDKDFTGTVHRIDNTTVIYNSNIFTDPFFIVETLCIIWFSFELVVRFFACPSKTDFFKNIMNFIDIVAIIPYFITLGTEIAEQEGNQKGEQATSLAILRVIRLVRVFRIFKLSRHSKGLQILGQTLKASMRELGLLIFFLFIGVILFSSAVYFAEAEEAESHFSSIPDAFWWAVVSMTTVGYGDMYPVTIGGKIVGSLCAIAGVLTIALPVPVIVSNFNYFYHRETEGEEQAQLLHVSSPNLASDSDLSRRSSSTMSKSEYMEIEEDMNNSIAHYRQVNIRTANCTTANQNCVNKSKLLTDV
Briefly: QPatch automated patch-clamp, CHO-S cells expressing huKv1.1 (Examples 20-21). It counts as cell-based. Conditions: four-point curves of FIG. 33, Table E20. The protocol: 1. The effect of these KnotBodies on cells expressing human Kv1.1 (huKv1.1) and Kv1.3 (huKv1.3) channels was assessed using QPatch automated patch-clamp platform (Sophion).
To generate huKv1.1 expressing cells, Freestyle CHO-S cells (Cat. no. R80007, Life Technologies, California, USA) were transfected with pINT50-Tr plasmid encoding huKv1.1 gene using the MaxCyte STX (MaxCyte) transfection system. In pINT50-Tr plasmid, huKv1.1 gene is under the control of a CMV promoter. 64 µg of the plasmid DNA were added to 400 µl of Freestyle CHO-S cells (at a density of 1 × 10^8 cells/ml) in Electroporation Buffer (GE Healthcare Life Sciences, Cat. no. EPB1) in an OC-400 processing assembly (MaxCyte). Following electroporation, the cells were transferred to a well of a 24-well plate containing 200 U/ml DNAse I (Sigma, D4263) and incubated for 20 minutes at 37° C. and 5% CO2. The cells were then transferred into a 100 ml shaker flask containing 20 ml of CD Opticho Media (Thermo Fisher Scientific, Cat.No 12681-011,) supplemented with 8 mM L-Glut (Thermo Fisher Scientific, cat. no. 25030-024). The cells were incubated for 24 hours at 37° C. and 5% CO2 (and 75% humidity and shaking at 800 rpm) prior to testing using automated patch clamp electrophysiology.
(§1) For the testing of Kv1.1 and Kv1.3, CHO-S expressing huKv1.1 (described above) or CHO cells stably expressing huKv1.3 (Charles River Lab) were analysed using the QPatch electrophysiology assay in the presence or absence of the KnotBody fusions. Internal and external physiological solutions were freshly prepared prior to the assay. The extracellular solution contained 145 mM NaCl, 4 mM KC1, 2 mM CaC12, 1 mM MgC12, 10 mM HEPES and 10 mM glucose; the pH was adjusted to 7.4 with NaOH; the osmolarity was ~ 305 mOsm/L. The intracellular solution contained: KF (120 mM), KC1 (20 mM), HEPES (10 mM) EGTA (10 mM); the pH was adjusted to 7.2 with KOH; osmolarity was ~ 300 mOsm/L.
(§2) A series of depolarising voltage (channel activating) pulses were used to monitor the channel currents upon adding control (extracellular solution) to define a control baseline of current activity. To these measured control currents four, ascending concentrations of KnotBodies (including previously described KB_A12_ShK and KB_A12_KTX described in Example 8) or parental antibody isotypes (control molecules) were applied to the external bathing solution. KnotBodies KB_A12 and KB_A07 (EETI-II fusions) were used as isotype controls for the testing. From a holding voltage of -80 mV a depolarising, activating voltage pulses of +30 were applied for 300 ms, every 10 seconds. The elicited, maximum outward current values measured during the activating step for each solution exchange period, averaged (n = 3 - 6 for each concentration applied) and plotted as concentration-response curves (see FIG. 33). From these concentration-response curves IC50 values were calculated (see Table E20).
(§3) For the testing of Kv1.1 and Kv1.3, CHO-S expressing huKv1.1 (see Example 20 and below) or CHO cells stably expressing huKv1.3 (Charles River Lab) were analysed using the QPatch electrophysiology assay in the presence or absence of the KnotBody fusions - see details in Examples 19 and 20.
In addition to the CHO-S transiently expressing huKv1.1 (described in Example 20), CHO-S cells with poly-clonal stable expression of huKv1.1 cells were also made and used in the QPatch electrophysiology assay. To generate the polyclonal stable huKv1.1 cells from the transiently expressing cells described in Example 20, after a 24 hour incubation period the selection antibiotic Puromycin (catalogue no. A1 1138-03, Life Technologies, California, USA) was added to culture media. Then, for the first 14 days puromycin was at 10 µg ml-1 media; at days 15-28 puromycin was at 20 µg ml-1 media. Cell cultures were seeded at 2.5 x 10^5 cells ml^-1 into fresh culture media and puromycin twice per week through this selection growth period. […]
A general note: Patch clamp records ionic current or voltage across a cell membrane.
B1 gave an IC50 of 0.38 µM.

In turn, B2 yielded a half-maximal inhibitory concentration (IC50) of 1.4 µM.

As to B3, 1.22 µM corresponded to half-maximal inhibition (IC50).

On to B4, for which 0.65 µM corresponded to half-maximal inhibition (IC50).

The target in the next assay is T1, huASIC1a. Briefly: QPatch electrophysiology, HEK293 cells stably expressing huASIC1a. The assay is classed as cell-based. Conditions: ASIC1a current at pH 6.0 after 15-20 minutes KnotBody pre-incubation, 2.3-6.6 µM. Here is the method:
Knottin Kv 1.3 and ASIC1a blockers expressed in the KnotBody format (see examples 6 and 7) were tested for their ability to inhibit the function of the ion channel targets. The effect of these KnotBodies on cells expressing the human Kv 1.3 (huKv1.3) or human ASIC1a channels was assessed using QPatch automated whole-cell patch-clamp electrophysiology (Sophion).
To functionally assess the ASIC1a KnotBodies, HEK293 cells stably expressing huASIC1a (Sophion) were analysed using a QPatch electrophysiology assay in the presence or absence of the KnotBody fusions (using KB_A12 as a recipient and replacing the original EETI-II donor as shown in Table 8). The “parental” KB_A12 with the EETI-II donor was used as a negative control. Internal and external physiological solutions were freshly prepared prior to the assay. The extracellular solution contained 145 mM NaCl, 4 mM KCl, 2 mM CaCl2, 1 mM MgCl2, 10 mM HEPES and 10 mM glucose; the pH was adjusted to 7.4 with NaOH (for control, resting-state pH) or 6.0 with MES (for acidic, activating-state pH); the osmolarity was ~ 305 mOsm/L. The intracellular solution contained: CsF (140 mM), HEPES (10 mM), NaCl (10 mM) and EGTA/CsOH (1 mM/5 mM); the pH was adjusted to 7.3 with CsOH; osmolarity was ~ 320 mOsm/L.
Throughout ASIC 1a recordings the recording cell membrane voltage was clamped at -60 mV. ASIC1a baseline control currents were elicited by applying external solution at activating pH 6.0 for 3000 ms. This activating pH application was repeated three further times, giving four baseline control ASIC1a currents. The recording cells were then pre-incubated with KnotBody diluted in external solution at pH 7.4 for 15-20 minutes. Following this KnotBody pre-incubation the same concentration of KnotBody in external solution at activating pH 6.0 was applied to the cell recording.
At the end of each KnotBody incubation and subsequent ASIC1a current activation, a full blocking concentration (300 nM) of the ASIC1a knottin inhibitor PcTx1 (positive control) was perfused onto the cell recording and a final activating pH 6.0 external solution was applied. The percentage remaining signal between activating pH 6.0 baseline (i.e. pre-KnotBody) and post-KnotBody incubation was determined.
In the case of B5, the “% current remaining” value was “same level of current as the KB_A12 negative control”.

Staying with this assay, now noted: ASIC1a current at pH 6.0 after 15-20 minutes KnotBody pre-incubation, 2.3-6.6 µM; listed as KB A12 Mba-2.
In the case of B5, the “% current remaining” value is given as 72.4%.

Another assay has as its target T3, human Kv1.3 (huKv1.3) (Homo sapiens, UniProt P22001).
T3 construct: host or cells: CHO
Briefly: QPatch automated patch-clamp, CHO cells stably expressing human Kv1.3 (Examples 19-21). The assay is classed as cell-based. To be noted: Kv1.1 IC50 over Kv1.3 IC50, Table E20. Here is the method: The effect of these KnotBodies on cells expressing human Kv1.3 (huKv1.3) channel was assessed using the QPatch automated patch-clamp platform (Sophion, Ballerup, Denmark). For the testing of Kv1.3 ion channel currents, CHO cells stably expressing human Kv1.3 (GenBank accession number NM_002232.2; cell line catalogue number CT6133, Charles River Discovery, Cleveland, USA) were subjected to a QPatch electrophysiology assay in the presence or absence of the KnotBody fusions or the antibody isotypes (negative controls). Internal and external physiological solutions were freshly prepared prior to the assay. The extracellular solution contained 145 mM NaCl, 4 mM KC1, 2 mM CaC12, 1 mM MgC12, 10 mM HEPES and 10 mM glucose; the pH was adjusted to 7.4 with NaOH; the osmolarity was ~ 305 mOsm/L. The intracellular solution contained: KF (120 mM), KC1 (20 mM), HEPES (10 mM) EGTA (10 mM); the pH was adjusted to 7.2 with KOH; osmolarity was ~ 300 mOsm/L.
as §2, with “(including” for “(including previously described”, “KB_A12_KTX as previously” for “KB_A12_KTX”, “+30 mV” for “+30”, “32).” for “33).”, “calculated.” for “calculated (see Table E20).”
as §1, §2, §3
Molecule B1 came in with a Fold difference of 8.

Molecule B2 registered a Fold difference of 6.

B3 returned a Fold difference of 102.

Molecule B4 gave a Fold difference of 43.

Staying with this assay, now noted: four-point curves of FIG. 33, Table E20; read-out: Kv1.3 IC50.
For the molecule B1, the 50% inhibitory concentration (IC50) was 0.049 µM.

With B2, the concentration for half-maximal inhibition (IC50) is 0.251 µM.

Regarding B3, the half-maximal inhibitory concentration (IC50) was 0.012 µM.

As for B4, the IC50 amounted to 0.015 µM.

The same assay, now with this note: huKv1.3, four-point curves of FIG. 32, Table E19; read-out: IC50.
For the molecule B1, the IC50 was determined as 0.064 µM.

As for B2, the concentration for half-maximal inhibition (IC50) is 0.17 µM.

Consider B3, for which the concentration for half-maximal inhibition (IC50) was determined as 0.016 µM.

In the case of B4, the IC50 was found to be 0.0039 µM.
